{
  "source": "paper PMC2649695",
  "about": "(Circulation research, 2009)",
  "molecular_target": "T1, GST-MBS 683-866 (UniProt O14974 683-866)",
  "T1 sequence (looked up)": "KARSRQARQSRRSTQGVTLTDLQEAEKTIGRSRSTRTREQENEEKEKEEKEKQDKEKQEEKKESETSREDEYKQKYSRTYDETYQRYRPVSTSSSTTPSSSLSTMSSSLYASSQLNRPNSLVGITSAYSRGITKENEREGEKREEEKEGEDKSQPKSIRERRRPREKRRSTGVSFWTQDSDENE",
  "assay": "pull-down",
  "data": [
    {"binder": "Myc-tagged ROCK2 (natural protein, UniProt O75116 1-1388, looked up) MSRPPPTGKMPGAPETAPGDGAGASRQRKLEALIRDPRSPINVESLLDGLNSLVLDLDFPALRKNKNIDNFLNRYEKIVKKIRGLQMKAEDYDVVKVIGRGAFGEVQLVRHKASQKVYAMKLLSKFEMIKRSDSAFFWEERDIMAFANSPWVVQLFYAFQDDRYLYMVMEYMPGGDLVNLMSNYDVPEKWAKFYTAEVVLALDAIHSMGLIHRDVKPDNMLLDKHGHLKLADFGTCMKMDETGMVHCDTAVGTPDYISPEVLKSQGGDGFYGRECDWWSVGVFLYEMLVGDTPFYADSLVGTYSKIMDHKNSLCFPEDAEISKHAKNLICAFLTDREVRLGRNGVEEIRQHPFFKNDQWHWDNIRETAAPVVPELSSDIDSSNFDDIEDDKGDVETFPIPKAFVGNQLPFIGFTYYRENLLLSDSPSCRETDSIQSRKNEESQEIQKKLYTLEEHLSNEMQAKEELEQKCKSVNTRLEKTAKELEEEITLRKSVESALRQLEREKALLQHKNAEYQRKADHEADKKRNLENDVNSLKDQLEDLKKRNQNSQISTEKVNQLQRQLDETNALLRTESDTAARLRKTQAESSKQIQQLESNNRDLQDKNCLLETAKLKLEKEFINLQSALESERRDRTHGSEIINDLQGRICGLEEDLKNGKILLAKVELEKRQLQERFTDLEKEKSNMEIDMTYQLKVIQQSLEQEEAEHKATKARLADKNKIYESIEEAKSEAMKEMEKKLLEERTLKQKVENLLLEAEKRCSLLDCDLKQSQQKINELLKQKDVLNEDVRNLTLKIEQETQKRCLTQNDLKMQTQQVNTLKMSEKQLKQENNHLMEMKMNLEKQNAELRKERQDADGQMKELQDQLEAEQYFSTLYKTQVRELKEECEEKTKLGKELQQKKQELQDERDSLAAQLEITLTKADSEQLARSIAEEQYSDLEKEKIMKELEIKEMMARHKQELTEKDATIASLEETNRTLTSDVANLANEKEELNNKLKDVQEQLSRLKDEEISAAAIKAQFEKQLLTERTLKTQAVNKLAEIMNRKEPVKRGNDTDVRRKEKENRKLHMELKSEREKLTQQMIKYQKELNEMQAQIAEESQIRIELQMTLDSKDSDIEQLRSQLQALHIGLDSSSIGSGPGDAEADDGFPESRLEGWLSLPVRNNTKKFGWVKKYVIVSSKKILFYDSEQDKEQSNPYMVLDIDKLFHVRPVTQTDVYRADAKEIPRIFQILYANEGESKKEQEFPVEPVGEKSNYICHKGHEFIPTLYHFPTNCEACMKPLWHMFKPPPALECRRCHIKCHKDHMDKKEEIIAPCKVYYDISTAKNLLLLANSTEEQQKWVSRLVKKIPKKPPAPDPFARSSPRTSMKIQQNQSIRRPSRQLAPNKPS", "values": [
      {"measurement": "fold bound relative to mycROCK1", "value": 2, "unit": "fold"}
    ]}
  ]
}
